Data reported in patent publication US20230213525.

Legend:
[1] = biological target: T1, ElaSub1_CBM_His chimeric protein (variant 3), separated from the TrxA tag and coupled with Remazol Brilliant Blue
T1 chain: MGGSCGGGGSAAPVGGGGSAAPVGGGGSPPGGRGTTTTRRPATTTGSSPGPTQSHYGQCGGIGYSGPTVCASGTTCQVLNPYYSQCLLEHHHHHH

[2] = biological target: T2, TrxA_ElaSub1_CBM-His fusion protein
T2 chain: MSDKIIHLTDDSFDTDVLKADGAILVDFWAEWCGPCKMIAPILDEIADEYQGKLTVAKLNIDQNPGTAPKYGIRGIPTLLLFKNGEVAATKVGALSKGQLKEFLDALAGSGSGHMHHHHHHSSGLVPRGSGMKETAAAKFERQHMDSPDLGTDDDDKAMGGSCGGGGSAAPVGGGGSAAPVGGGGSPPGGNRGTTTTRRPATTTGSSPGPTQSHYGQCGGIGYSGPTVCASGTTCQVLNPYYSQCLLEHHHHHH

B1: human leukocyte elastase (HLE) (protein)
chain: IVGGRRARPHAWPFMVSLQLRGGHFCGATLIAPNFVMSAAHCVANVNVRAVRVVLGAHNLSRREPTRQVFAVQRIFENGYDPVNLLNDIVILQLNGSATINANVQVAQLPAQGRRLGNGVQCLAMGWGLLGRNRGIASVLQELNVTVVTSLCRRSNVCTLVRGRQAGVCFGDSGSPLVCNGLIHGIASFVRGGCASGLYPDAFAPVAQFVNWIDSIIQ
- colour of the supernatant (dye release from the filter strip carrying the chimeric peptide, 30 min, 0.05 U/ml HLE) [1]: Initially non coloured samples (clear supernatant) that exhibit elastase activity developed a blue colour

B2: recombinant expressed bovine enterokinase from Merck Millipore (protein)
chain: IVGGSDSREGAWPWVVALYFDDQQVCGASLVSRDWLVSAAHCVYGRNMEPSKWKAVLGLHMASNLTSPQIETRLIDQIVINPHYNKRRKNNDIAMMHLEMKVNYTDYIQPICLPEENQVFPPGRICSIAGWGALIYQGSTADVLQEADVPLLSNEKCQQQMPEYNITENMVCAGYEAGGVDSCQGDSGGPLMCQENNRWLLAGVTSFGYQCALPNRPGVYARVPRFTEWIQSFLH
- separation of the chimeric construct from the TrxA tag (SDS-PAGE) [2]: The separation of the desired chimeric construct from the TrxA-Tag was verified by SDS-PAGE.
